Experimental data from publication PMC3302767.

What was measured:
[1] = molecular target: Plasmodium falciparum formin 1 FH1 and FH2 domains (Pf-Frm1-FH1FH2) (P. falciparum); test: SEC-MALS; Superdex 200 10/300 GL, 200 µl of each formin at 1 mg/ml; 50 mM sodium phosphate pH 7.0, 50 mM NaCl, 1 mM DTT; monomer to dimer
[2] = molecular target: Plasmodium falciparum formin 1 FH2 domain with the lasso segment (Pf-Frm1-FH2) (P. falciparum); test: as above

Plasmodium falciparum formin 1 FH1 and FH2 domains (Pf-Frm1-FH1FH2) (domain or fragment)
stoichiometry N [1]: 2

Plasmodium falciparum formin 1 FH2 domain with the lasso segment (Pf-Frm1-FH2) (domain or fragment)
stoichiometry N [2]: 2
